Earlier results as cited in PMC3433420.
Like-named read-outs stand apart in the source and are kept apart here.

Experiments:
Conditions in all cases: cited from earlier work
SYK-NC (Homo sapiens) [1] = target: SYK-NC (Homo sapiens) (UniProt P43405)
GRB7 (Homo sapiens) [2] = target: GRB7 (Homo sapiens) (UniProt Q14451)
PIK3R1-N (Homo sapiens) = PIK3R1-N (Homo sapiens) (UniProt P27986)
SLA (Homo sapiens) [3] = target: SLA (Homo sapiens) (UniProt Q13239)
ABL2 (Homo sapiens) [4] = target: ABL2 (Homo sapiens) (UniProt P42684)
Sequence of ABL2 (Homo sapiens) (P42684 168-268): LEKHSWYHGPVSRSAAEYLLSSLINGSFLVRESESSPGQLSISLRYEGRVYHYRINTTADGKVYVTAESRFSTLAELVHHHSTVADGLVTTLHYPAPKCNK

PIK3R3-NC (Homo sapiens) [5] = target: PIK3R3-NC (Homo sapiens) (UniProt Q92569)
PIK3R3-NC (Homo sapiens) [6] = target: PIK3R3-NC (Homo sapiens) (UniProt Q92569); remark: listed apart in the source
RASA1-N (Homo sapiens) [7] = target: RASA1-N (Homo sapiens) (UniProt P20936)
Sequence of RASA1-N (Homo sapiens) (P20936 176-446): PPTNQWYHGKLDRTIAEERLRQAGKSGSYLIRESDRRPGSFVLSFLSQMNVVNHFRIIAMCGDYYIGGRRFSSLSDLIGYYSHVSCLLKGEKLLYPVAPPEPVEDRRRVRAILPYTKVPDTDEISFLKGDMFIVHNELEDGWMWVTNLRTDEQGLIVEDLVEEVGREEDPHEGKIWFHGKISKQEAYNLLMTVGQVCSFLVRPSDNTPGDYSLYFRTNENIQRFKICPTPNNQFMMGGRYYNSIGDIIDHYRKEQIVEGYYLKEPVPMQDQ

TENC1 (Homo sapiens) [8] = target: TENC1 (Homo sapiens) (UniProt Q63HR2)
Sequence of TENC1 (Homo sapiens) (Q63HR2 1135-1252): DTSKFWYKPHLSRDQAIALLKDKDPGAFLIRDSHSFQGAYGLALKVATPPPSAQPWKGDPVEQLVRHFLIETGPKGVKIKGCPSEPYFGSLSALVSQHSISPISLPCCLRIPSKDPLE

TENC1 (Homo sapiens) [9] = target: TENC1 (Homo sapiens) (UniProt Q63HR2); remark: listed apart in the source
PIK3R1-NC (Homo sapiens) [10] = target: PIK3R1-NC (Homo sapiens) (UniProt P27986)
Sequence of PIK3R1-NC (Homo sapiens) (P27986 328-723): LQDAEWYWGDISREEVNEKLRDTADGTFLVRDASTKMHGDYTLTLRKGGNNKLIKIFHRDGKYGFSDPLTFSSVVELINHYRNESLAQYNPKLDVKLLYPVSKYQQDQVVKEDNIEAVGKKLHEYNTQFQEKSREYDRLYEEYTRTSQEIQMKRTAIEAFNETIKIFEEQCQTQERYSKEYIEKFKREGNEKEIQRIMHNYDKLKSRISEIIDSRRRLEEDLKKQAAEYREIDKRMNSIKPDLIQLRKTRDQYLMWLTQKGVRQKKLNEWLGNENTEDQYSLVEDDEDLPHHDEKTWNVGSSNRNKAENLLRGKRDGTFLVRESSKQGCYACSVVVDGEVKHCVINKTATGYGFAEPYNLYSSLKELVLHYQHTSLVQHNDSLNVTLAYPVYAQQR

PIK3R1-NC (Homo sapiens) [11] = target: PIK3R1-NC (Homo sapiens) (UniProt P27986); remark: listed apart in the source
PIK3R3-N (Homo sapiens) [12] = target: PIK3R3-N (Homo sapiens) (UniProt Q92569)
PIK3R3-N (Homo sapiens) [13] = target: PIK3R3-N (Homo sapiens) (UniProt Q92569); remark: listed apart in the source
PIK3R2-NC (Homo sapiens) = PIK3R2-NC (Homo sapiens) (UniProt O00459)
PIK3R2-N (Homo sapiens) [14] = target: PIK3R2-N (Homo sapiens) (UniProt O00459)
Sequence of PIK3R2-N (Homo sapiens) (O00459 325-721): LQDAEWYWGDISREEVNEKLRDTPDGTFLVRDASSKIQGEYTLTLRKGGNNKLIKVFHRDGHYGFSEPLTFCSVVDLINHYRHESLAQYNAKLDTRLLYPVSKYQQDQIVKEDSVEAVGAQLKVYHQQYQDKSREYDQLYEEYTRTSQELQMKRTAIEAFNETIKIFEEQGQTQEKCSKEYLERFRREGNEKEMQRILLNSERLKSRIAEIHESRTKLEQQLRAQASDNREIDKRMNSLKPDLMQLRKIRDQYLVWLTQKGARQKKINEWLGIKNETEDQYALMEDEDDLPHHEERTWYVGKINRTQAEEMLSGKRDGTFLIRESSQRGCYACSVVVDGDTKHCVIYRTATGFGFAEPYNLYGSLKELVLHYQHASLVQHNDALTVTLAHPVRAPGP

PIK3R2-N (Homo sapiens) [15] = target: PIK3R2-N (Homo sapiens) (UniProt O00459); remark: listed apart in the source
PIK3R3-C (Homo sapiens) = PIK3R3-C (Homo sapiens) (UniProt Q92569)
SYK-NC (Homo sapiens) [16] = target: SYK-NC (Homo sapiens) (UniProt P43405); remark: listed apart in the source
GRB7 (Homo sapiens) [17] = target: GRB7 (Homo sapiens) (UniProt Q14451); remark: listed apart in the source
SLA (Homo sapiens) [18] = target: SLA (Homo sapiens) (UniProt Q13239); remark: listed apart in the source
BLK (Homo sapiens) = BLK (Homo sapiens) (UniProt P51451)
Sequence of BLK (Homo sapiens) (P51451 119-225): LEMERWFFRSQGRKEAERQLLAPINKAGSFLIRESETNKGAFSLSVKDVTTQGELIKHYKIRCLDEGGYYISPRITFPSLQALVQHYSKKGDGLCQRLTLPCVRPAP

ITK (Homo sapiens) = ITK (Homo sapiens) (UniProt Q08881)
ABL2 (Homo sapiens) [19] = target: ABL2 (Homo sapiens) (UniProt P42684); remark: listed apart in the source
ABL2 (Homo sapiens) [20] = target: ABL2 (Homo sapiens) (UniProt P42684); remark: listed apart in the source
TNS4 (Homo sapiens) = TNS4 (Homo sapiens) (UniProt Q8IZW8)
SH2B3 (Homo sapiens) = SH2B3 (Homo sapiens) (UniProt Q9UQQ2)
PLCG2-NC (Homo sapiens) [21] = target: PLCG2-NC (Homo sapiens) (UniProt P16885)
Sequence of PLCG2-NC (Homo sapiens) (P16885 527-740): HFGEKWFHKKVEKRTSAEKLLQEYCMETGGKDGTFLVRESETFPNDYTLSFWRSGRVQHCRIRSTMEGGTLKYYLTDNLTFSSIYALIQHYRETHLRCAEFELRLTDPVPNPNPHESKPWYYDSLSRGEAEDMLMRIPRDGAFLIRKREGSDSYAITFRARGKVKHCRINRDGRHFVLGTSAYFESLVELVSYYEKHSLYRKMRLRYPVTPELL

PLCG2-NC (Homo sapiens) [22] = target: PLCG2-NC (Homo sapiens) (UniProt P16885); remark: listed apart in the source
PIK3R3-NC (Homo sapiens) [23] = target: PIK3R3-NC (Homo sapiens) (UniProt Q92569); remark: listed apart in the source
SOCS2 (Homo sapiens) = SOCS2 (Homo sapiens) (UniProt O14508)
Sequence of SOCS2 (Homo sapiens) (O14508 43-161): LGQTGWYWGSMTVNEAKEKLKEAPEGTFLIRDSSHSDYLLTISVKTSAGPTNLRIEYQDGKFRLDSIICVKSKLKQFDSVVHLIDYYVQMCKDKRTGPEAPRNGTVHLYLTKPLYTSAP

RASA1-N (Homo sapiens) [24] = target: RASA1-N (Homo sapiens) (UniProt P20936); remark: listed apart in the source
RASA1-N (Homo sapiens) [25] = target: RASA1-N (Homo sapiens) (UniProt P20936); remark: listed apart in the source
SOCS1 (Homo sapiens) = SOCS1 (Homo sapiens) (UniProt O15524)
Sequence of SOCS1 (Homo sapiens) (O15524 74-179): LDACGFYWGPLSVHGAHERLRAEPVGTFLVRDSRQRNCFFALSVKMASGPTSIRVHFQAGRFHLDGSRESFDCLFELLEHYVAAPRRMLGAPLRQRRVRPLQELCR

SH2D2A (Homo sapiens) = SH2D2A (Homo sapiens) (UniProt Q9NP31)
ZAP70-NC (Homo sapiens) = ZAP70-NC (Homo sapiens) (UniProt P43403)
Sequence of ZAP70-NC (Homo sapiens) (P43403 5-259): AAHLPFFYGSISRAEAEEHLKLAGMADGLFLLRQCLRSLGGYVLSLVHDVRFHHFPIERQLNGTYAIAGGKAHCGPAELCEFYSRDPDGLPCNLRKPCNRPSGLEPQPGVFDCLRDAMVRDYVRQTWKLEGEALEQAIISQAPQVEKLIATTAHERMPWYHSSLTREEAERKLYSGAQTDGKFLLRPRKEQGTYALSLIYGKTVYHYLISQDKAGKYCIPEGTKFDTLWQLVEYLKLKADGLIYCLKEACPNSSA

SH2B (Homo sapiens) = SH2B (Homo sapiens) (UniProt Q9NRF2)
PIK3R1-NC (Homo sapiens) [26] = target: PIK3R1-NC (Homo sapiens) (UniProt P27986); remark: listed apart in the source
GRB10 (Homo sapiens) [27] = target: GRB10 (Homo sapiens) (UniProt Q13322)
Sequence of GRB10 (Homo sapiens) (Q13322 488-579): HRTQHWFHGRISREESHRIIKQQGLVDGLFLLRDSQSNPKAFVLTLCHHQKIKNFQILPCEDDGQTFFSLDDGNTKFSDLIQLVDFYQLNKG

GRB10 (Homo sapiens) [28] = target: GRB10 (Homo sapiens) (UniProt Q13322); remark: listed apart in the source
FES (Homo sapiens) = FES (Homo sapiens) (UniProt P07332)
SRC (Homo sapiens) = SRC (Homo sapiens) (UniProt P12931)
PTPN6-NC (Homo sapiens) = PTPN6-NC (Homo sapiens) (UniProt P29350)
SHC1-PTB (Homo sapiens) = SHC1-PTB (Homo sapiens) (UniProt P29353)
Sequence of SHC1-PTB (Homo sapiens) (P29353 483-583): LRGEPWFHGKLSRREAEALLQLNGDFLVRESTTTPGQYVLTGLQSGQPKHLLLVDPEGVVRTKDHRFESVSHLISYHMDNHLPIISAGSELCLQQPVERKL

YES1 (Homo sapiens) = YES1 (Homo sapiens) (UniProt P07947)
SHC2-PTB (Homo sapiens) = SHC2-PTB (Homo sapiens) (UniProt P98077)
Sequence of SHC2-PTB (Homo sapiens) (P98077 482-582): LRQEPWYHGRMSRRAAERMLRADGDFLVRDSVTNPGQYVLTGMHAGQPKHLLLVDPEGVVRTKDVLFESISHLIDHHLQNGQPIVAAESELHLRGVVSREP

SH2D3C (Homo sapiens) = SH2D3C (Homo sapiens) (UniProt Q8N5H7)
Sequence of SH2D3C (Homo sapiens) (Q8N5H7 215-324): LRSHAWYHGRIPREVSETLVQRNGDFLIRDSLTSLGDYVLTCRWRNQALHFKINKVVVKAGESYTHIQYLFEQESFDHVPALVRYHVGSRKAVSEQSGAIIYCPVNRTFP

RASA1-NC (Homo sapiens) [29] = target: RASA1-NC (Homo sapiens) (UniProt P20936)
Sequence of RASA1-NC (Homo sapiens) (P20936 176-446): as the sequence (P20936 176-446) above

RASA1-NC (Homo sapiens) [30] = target: RASA1-NC (Homo sapiens) (UniProt P20936); remark: listed apart in the source
LCK (Homo sapiens) = LCK (Homo sapiens) (UniProt P06239)
Sequence of LCK (Homo sapiens) (P06239 122-229): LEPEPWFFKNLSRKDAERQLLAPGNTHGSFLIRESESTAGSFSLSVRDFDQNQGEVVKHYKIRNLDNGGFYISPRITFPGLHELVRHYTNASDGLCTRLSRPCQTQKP

Sequence of GRB7 (Homo sapiens) (Q14451 426-532): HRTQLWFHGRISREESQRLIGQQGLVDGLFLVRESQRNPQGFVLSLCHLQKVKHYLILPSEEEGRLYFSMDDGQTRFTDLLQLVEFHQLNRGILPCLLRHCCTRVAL
Sequence of SLA (Homo sapiens) (Q13239 79-180): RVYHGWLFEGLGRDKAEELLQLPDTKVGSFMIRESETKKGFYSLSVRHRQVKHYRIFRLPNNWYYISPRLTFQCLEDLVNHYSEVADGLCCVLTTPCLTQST
Sequence of PIK3R1-N (Homo sapiens) (P27986 328-723): as the sequence (P27986 328-723) above

In the case of …pYEYMNRQR, the apparent Kd (screen) (SYK-NC (Homo sapiens) [1]) is listed as 1.3 µM, the apparent Kd (screen) (GRB7 (Homo sapiens) [2]) is listed as 0.999 µM and the apparent Kd (screen) (PIK3R1-N (Homo sapiens)) is listed as 0.296 µM. The apparent Kd (screen) (SLA (Homo sapiens) [3]) was 2 µM, the apparent Kd (screen) (ABL2 (Homo sapiens) [4]) was 0.357 µM and the apparent Kd (screen) (PIK3R3-NC (Homo sapiens) [5]) was 0.151 µM. For the same substance, the apparent Kd (screen) (PIK3R3-NC (Homo sapiens) [6]) was 0.122 µM, the apparent Kd (screen) (RASA1-N (Homo sapiens) [7]) was 1.04 µM and the apparent Kd (screen) (TENC1 (Homo sapiens) [8]) was 1.71 µM. The apparent Kd (screen) (TENC1 (Homo sapiens) [9]) was 1.62 µM, the apparent Kd (screen) (PIK3R1-NC (Homo sapiens) [10]) was 0.033 µM and the apparent Kd (screen) (PIK3R1-NC (Homo sapiens) [11]) was 0.043 µM. The apparent Kd (screen) (PIK3R3-N (Homo sapiens) [12]) was 0.157 µM, the apparent Kd (screen) (PIK3R3-N (Homo sapiens) [13]) was 0.171 µM and the apparent Kd (screen) (PIK3R2-NC (Homo sapiens)) was 0.099 µM. For the same substance, the apparent Kd (screen) (PIK3R2-N (Homo sapiens) [14]) was 0.151 µM, the apparent Kd (screen) (PIK3R2-N (Homo sapiens) [15]) was 0.199 µM and the apparent Kd (screen) (PIK3R3-C (Homo sapiens)) was 0.13 µM.
In the case of …pYRALMDEEd, the apparent Kd (screen) (SYK-NC (Homo sapiens) [16]) is listed as 0.905 µM, the apparent Kd (screen) (GRB7 (Homo sapiens) [17]) is listed as 0.755 µM and the apparent Kd (screen) (SLA (Homo sapiens) [18]) is listed as 1.6 µM. For the same substance, the apparent Kd (screen) (BLK (Homo sapiens)) was 0.191 µM, the apparent Kd (screen) (ITK (Homo sapiens)) was 0.277 µM and the apparent Kd (screen) (ABL2 (Homo sapiens) [19]) was 1.5 µM. The apparent Kd (screen) (ABL2 (Homo sapiens) [20]) was 2 µM, the apparent Kd (screen) (TNS4 (Homo sapiens)) was 2 µM and the apparent Kd (screen) (SH2B3 (Homo sapiens)) was 1.36 µM. For the same substance, the apparent Kd (screen) (PLCG2-NC (Homo sapiens) [21]) was 1.39 µM, the apparent Kd (screen) (PLCG2-NC (Homo sapiens) [22]) was 1.5 µM and the apparent Kd (screen) (PIK3R3-NC (Homo sapiens) [23]) was 0.968 µM. For the same substance, the apparent Kd (screen) (SOCS2 (Homo sapiens)) was 2 µM, the apparent Kd (screen) (RASA1-N (Homo sapiens) [24]) was 0.709 µM and the apparent Kd (screen) (RASA1-N (Homo sapiens) [25]) was 1.06 µM. The apparent Kd (screen) (SOCS1 (Homo sapiens)) was 2 µM, the apparent Kd (screen) (SH2D2A (Homo sapiens)) was 2 µM and the apparent Kd (screen) (ZAP70-NC (Homo sapiens)) was 1.65 µM. For the same substance, the apparent Kd (screen) (SH2B (Homo sapiens)) was 2 µM, the apparent Kd (screen) (PIK3R1-NC (Homo sapiens) [26]) was 0.239 µM and the apparent Kd (screen) (GRB10 (Homo sapiens) [27]) was 1.69 µM. The apparent Kd (screen) (GRB10 (Homo sapiens) [28]) was 2 µM, the apparent Kd (screen) (FES (Homo sapiens)) was 1.23 µM and the apparent Kd (screen) (SRC (Homo sapiens)) was 1.14 µM. The apparent Kd (screen) (PTPN6-NC (Homo sapiens)) was 2 µM, the apparent Kd (screen) (SHC1-PTB (Homo sapiens)) was 1.15 µM and the apparent Kd (screen) (YES1 (Homo sapiens)) was 0.724 µM. The apparent Kd (screen) (SHC2-PTB (Homo sapiens)) was 0.978 µM, the apparent Kd (screen) (SH2D3C (Homo sapiens)) was 2 µM and the apparent Kd (screen) (RASA1-NC (Homo sapiens) [29]) was 1.65 µM. The apparent Kd (screen) (RASA1-NC (Homo sapiens) [30]) was 1.38 µM and the apparent Kd (screen) (LCK (Homo sapiens)) was 2 µM.
